Test results taken from patent US20240132578A1.

How the values were obtained:
[1] = target: JR-FL gp120 ΔV1/ΔV2 (HIV-1 JR-FL); assay: ELISA, antigen-coated wells, mAb titrated; EC50 by nonlinear regression
[2] = target: WT JR-FL gp120 (HIV-1 JR-FL); assay: as above
[3] = target: HIV-1 Env of isolate 94UG103 (pseudovirus) (HIV-1); assay: cell-based or functional assay
[4] = target: HIV-1 Env of isolate SC422661.8 (HIV-1); assay: cell-based or functional assay
[5] = target: HIV-1 Env of isolate 97ZA012 (HIV-1); assay: cell-based or functional assay
[6] = target: HIV-1 Env of isolate MGRM-A-002 (pseudovirus) (HIV-1); assay: cell-based or functional assay
[7] = target: HIV-1 Env of isolate 92WR024 (pseudovirus) (HIV-1); assay: cell-based or functional assay
[8] = target: HIV-1 Env of isolate MGRM-Chronic-B-020 (HIV-1); assay: cell-based or functional assay
[9] = target: HIV-1 Env of isolate MGRM-Chronic-B-012 (HIV-1); assay: cell-based or functional assay
[10] = target: HIV-1 Env of isolate 93WR029 (pseudovirus) (HIV-1); assay: cell-based or functional assay
[11] = target: HIV-1 Env of isolate QH0692.42 (HIV-1); assay: cell-based or functional assay
[12] = target: HIV-1 Env of isolate MGRM-Chronic-B-011 (HIV-1); assay: cell-based or functional assay
[13] = target: HIV-1 Env of isolate 92WR020 (pseudovirus) (HIV-1); assay: cell-based or functional assay
[14] = target: HIV-1 Env of isolate PVO.4 (HIV-1); assay: cell-based or functional assay
[15] = target: HIV-1 Env of isolate MGRM-Chronic-B-018 (HIV-1); assay: cell-based or functional assay
[16] = target: HIV-1 Env of isolate SF162 (HIV-1) (UniProt P19550); assay: cell-based or functional assay
[17] = target: HIV-1 Env of isolate 92UG031 (pseudovirus) (HIV-1); assay: cell-based or functional assay
[18] = target: HIV-1 Env of isolate MGRM-Chronic-B-010 (HIV-1); assay: cell-based or functional assay
[19] = target: HIV-1 Env of isolate THR0.18 (HIV-1); assay: cell-based or functional assay
[20] = target: HIV-1 Env of isolate MGRM-Chronic-B-017 (HIV-1); assay: cell-based or functional assay
[21] = target: HIV-1 Env of isolate 98IN022 (HIV-1); assay: cell-based or functional assay
[22] = target: HIV-1 Env of pseudovirus isolate MGRM-C-024 (clade C) (HIV-1); assay: cell-based or functional assay
[23] = target: HIV-1 Env of isolate 93UG077 (pseudovirus) (HIV-1); assay: cell-based or functional assay
[24] = target: HIV-1 Env of isolate VLGCB3 (HIV-1); assay: cell-based or functional assay
[25] = target: HIV-1 Env of isolate JRCSF (HIV-1) (UniProt P20871); assay: cell-based or functional assay
[26] = target: HIV-1 Env of isolate NL43 (HIV-1); assay: cell-based or functional assay
[27] = target: HIV-1 Env of isolate TRJ04551.58 (HIV-1); assay: cell-based or functional assay
[28] = target: HIV-1 Env of isolate 93IN905 (HIV-1); assay: cell-based or functional assay
[29] = target: HIV-1 Env of isolate MGRM-Chronic-B-024 (HIV-1); assay: cell-based or functional assay
[30] = target: HIV-1 Env of isolate 92WR021 (pseudovirus) (HIV-1); assay: cell-based or functional assay
[31] = target: HIV-1 Env of isolate 92UG037 (pseudovirus) (HIV-1); assay: cell-based or functional assay
[32] = target: HIV-1 Env of isolate 93MW959 (HIV-1); assay: cell-based or functional assay
[33] = target: HIV-1 Env of isolate MGRM-Chronic-B-023 (HIV-1); assay: cell-based or functional assay
[34] = target: HIV-1 Env of isolate TRO.11 (HIV-1); assay: cell-based or functional assay
[35] = target: HIV-1 92RW020 Env (HIV-1); assay: cell-based or functional assay

Substance | EC50 [2] | IC50 (µg/mL), pseudovirus neutralization [3] | IC50 (µg/mL), pseudovirus neutralization [4] | IC50 (µg/mL), pseudovirus neutralization [5] | IC50 (µg/mL), pseudovirus neutralization [6] | IC50 (µg/mL), pseudovirus neutralization [7] | IC50 (µg/mL), pseudovirus neutralization [8] | IC50 (µg/mL), pseudovirus neutralization [9] | IC50 (µg/mL), pseudovirus neutralization [10] | IC50 (µg/mL), pseudovirus neutralization [11] | IC50 (µg/mL), pseudovirus neutralization [12] | IC50 (µg/mL), pseudovirus neutralization [13] | IC50 (µg/mL), pseudovirus neutralization [15] | IC50 (µg/mL), pseudovirus neutralization [16] | IC50 (µg/mL), pseudovirus neutralization [17] | IC50 (µg/mL), pseudovirus neutralization [18] | IC50 (µg/mL), pseudovirus neutralization [19] | IC50 (µg/mL), pseudovirus neutralization [20] | IC50 (µg/mL), pseudovirus neutralization [21] | IC50, pseudovirus neutralization [22] | also measured
5114_A19 (PGT-128) (antibody) | 0.1 µg/mL | 0.011 µg/mL | 1.58 µg/mL | 0.019 µg/mL | 0.149 µg/mL | > 50 µg/mL | 0.007 µg/mL | 0.026 µg/mL | > 50 µg/mL | 0.029 µg/mL | 0.02 µg/mL | 0.005 µg/mL | 0.02 µg/mL | 0.007 µg/mL | > 50 µg/mL | 0.004 µg/mL | > 50 µg/mL | > 50 µg/mL | 0.014 µg/mL | > 50 µg/mL | EC50 [1]: 0.3 µg/mL; IC50 (µg/mL), pseudovirus neutralization [14]: 0.005 µg/mL; IC50 (µg/mL), pseudovirus neutralization [23]: 0.014 µg/mL; IC50 (µg/mL), pseudovirus neutralization [24]: 0.012 µg/mL; IC50 (µg/mL), pseudovirus neutralization [25]: 0.003 µg/mL; IC50 (µg/mL), pseudovirus neutralization [26]: > 50 µg/mL; IC50 (µg/mL), pseudovirus neutralization [27]: 0.019 µg/mL; IC50 (µg/mL), pseudovirus neutralization [28]: 0.009 µg/mL; IC50 (µg/mL), pseudovirus neutralization [29]: > 50 µg/mL; IC50 (µg/mL), pseudovirus neutralization [30]: 0.005 µg/mL; IC50 (µg/mL), pseudovirus neutralization [31]: 0.006 µg/mL; IC50 (µg/mL), pseudovirus neutralization [32]: 0.045 µg/mL; IC50 (µg/mL), pseudovirus neutralization [33]: > 50 µg/mL; IC50 (µg/mL), pseudovirus neutralization [34]: 0.018 µg/mL
5136_H01 (PGT-131) (antibody) | 0.4 µg/mL | 1.1 µg/mL | > 50 µg/mL | 1.81 µg/mL | > 50 µg/mL | > 50 µg/mL | 0.053 µg/mL | 15.7 µg/mL | > 50 µg/mL | > 50 µg/mL | 6.47 µg/mL | 0.168 µg/mL | > 50 µg/mL | 0.025 µg/mL | > 50 µg/mL | 0.016 µg/mL | > 50 µg/mL | > 50 µg/mL | > 50 µg/mL | > 50 µg/mL | IC50 (µg/mL), pseudovirus neutralization [14]: > 50 µg/mL; IC50 (µg/mL), pseudovirus neutralization [23]: > 50 µg/mL; IC50 (µg/mL), pseudovirus neutralization [24]: > 50 µg/mL; IC50 (µg/mL), pseudovirus neutralization [25]: 0.029 µg/mL; IC50 (µg/mL), pseudovirus neutralization [26]: > 50 µg/mL; IC50 (µg/mL), pseudovirus neutralization [27]: 0.088 µg/mL; IC50 (µg/mL), pseudovirus neutralization [28]: 0.177 µg/mL; IC50 (µg/mL), pseudovirus neutralization [29]: > 50 µg/mL; IC50 (µg/mL), pseudovirus neutralization [30]: 0.012 µg/mL; IC50 (µg/mL), pseudovirus neutralization [31]: 0.048 µg/mL; IC50 (µg/mL), pseudovirus neutralization [32]: > 50 µg/mL; IC50 (µg/mL), pseudovirus neutralization [33]: > 50 µg/mL; IC50 (µg/mL), pseudovirus neutralization [34]: 1.91 µg/mL
5147_N06 (PGT-130) (antibody) | 0.2 µg/mL | 1.4 µg/mL | > 50 µg/mL | 1.32 µg/mL | 0.01 µg/mL | > 50 µg/mL | 0.014 µg/mL | 0.373 µg/mL | 34.3 µg/mL | > 50 µg/mL | 0.153 µg/mL | 0.039 µg/mL | 31.9 µg/mL | 0.007 µg/mL | > 50 µg/mL | 0.006 µg/mL | > 50 µg/mL | > 50 µg/mL | > 50 µg/mL | > 50 µg/mL | IC50 (µg/mL), pseudovirus neutralization [14]: 5.17 µg/mL; IC50 (µg/mL), pseudovirus neutralization [23]: 21.4 µg/mL; IC50 (µg/mL), pseudovirus neutralization [24]: 4.6 µg/mL; IC50 (µg/mL), pseudovirus neutralization [25]: 0.01 µg/mL; IC50 (µg/mL), pseudovirus neutralization [26]: > 50 µg/mL; IC50 (µg/mL), pseudovirus neutralization [27]: 0.023 µg/mL; IC50 (µg/mL), pseudovirus neutralization [28]: 0.02 µg/mL; IC50 (µg/mL), pseudovirus neutralization [29]: 5.78 µg/mL; IC50 (µg/mL), pseudovirus neutralization [30]: 0.004 µg/mL; IC50 (µg/mL), pseudovirus neutralization [31]: 0.061 µg/mL; IC50 (µg/mL), pseudovirus neutralization [32]: 8.55 µg/mL; IC50, pseudovirus neutralization [35]: 0.014 µg/mL; IC50 (µg/mL), pseudovirus neutralization [33]: > 50 µg/mL; IC50 (µg/mL), pseudovirus neutralization [34]: 0.257 µg/mL
5329_C19 (PGT-136) (antibody) | 0.2 µg/mL | > 50 µg/mL | > 50 µg/mL | > 50 µg/mL | > 50 µg/mL | > 50 µg/mL | > 50 µg/mL | 43.1 µg/mL | > 50 µg/mL | > 50 µg/mL | > 50 µg/mL | 2.33 µg/mL | > 50 µg/mL | 0.482 µg/mL | > 50 µg/mL | > 50 µg/mL | > 50 µg/mL | > 50 µg/mL | 13.6 µg/mL | > 50 µg/mL | EC50 [1]: 0.3 µg/mL; IC50 (µg/mL), pseudovirus neutralization [14]: > 50 µg/mL; IC50 (µg/mL), pseudovirus neutralization [23]: > 50 µg/mL; IC50 (µg/mL), pseudovirus neutralization [24]: > 50 µg/mL; IC50 (µg/mL), pseudovirus neutralization [25]: > 50 µg/mL; IC50 (µg/mL), pseudovirus neutralization [26]: 27.7 µg/mL; IC50 (µg/mL), pseudovirus neutralization [27]: > 50 µg/mL; IC50 (µg/mL), pseudovirus neutralization [28]: 0.011 µg/mL; IC50 (µg/mL), pseudovirus neutralization [29]: > 50 µg/mL; IC50 (µg/mL), pseudovirus neutralization [30]: > 50 µg/mL; IC50 (µg/mL), pseudovirus neutralization [31]: > 50 µg/mL; IC50 (µg/mL), pseudovirus neutralization [32]: > 50 µg/mL; IC50, pseudovirus neutralization [35]: 0.738 µg/mL; IC50 (µg/mL), pseudovirus neutralization [33]: > 50 µg/mL; IC50 (µg/mL), pseudovirus neutralization [34]: 0.073 µg/mL
5345_I01 (PGT-137) (antibody) | 0.1 µg/mL | > 50 µg/mL | > 50 µg/mL | > 50 µg/mL | > 50 µg/mL | > 50 µg/mL | 32.9 µg/mL | > 50 µg/mL | > 50 µg/mL | > 50 µg/mL | > 50 µg/mL | 0.005 µg/mL | > 50 µg/mL | 3.41 µg/mL | > 50 µg/mL | > 50 µg/mL | > 50 µg/mL | > 50 µg/mL | 0.408 µg/mL | > 50 µg/mL | EC50 [1]: 0.2 µg/mL; IC50 (µg/mL), pseudovirus neutralization [23]: > 50 µg/mL; IC50 (µg/mL), pseudovirus neutralization [24]: 3.36 µg/mL; IC50 (µg/mL), pseudovirus neutralization [25]: > 50 µg/mL; IC50 (µg/mL), pseudovirus neutralization [26]: 17.4 µg/mL; IC50 (µg/mL), pseudovirus neutralization [27]: > 50 µg/mL; IC50 (µg/mL), pseudovirus neutralization [28]: 0.042 µg/mL; IC50 (µg/mL), pseudovirus neutralization [29]: > 50 µg/mL; IC50 (µg/mL), pseudovirus neutralization [30]: 3.52 µg/mL; IC50 (µg/mL), pseudovirus neutralization [31]: > 50 µg/mL; IC50 (µg/mL), pseudovirus neutralization [32]: > 50 µg/mL; IC50 (µg/mL), pseudovirus neutralization [33]: > 50 µg/mL; IC50 (µg/mL), pseudovirus neutralization [34]: 9.35 µg/mL
